# B1: Dynamin-1-like protein (Mus musculus), Q8K1M6-3 (parent)
# chain: MEALIPVINKLQDVFNTVGADIIQLPQIVVVGTQSSGKSSVLESLVGRDLLPRGTGVVTRRPLILQLVHVSPEDKRKTTGEENGVEAEEWGKFLHTKNKLYTDFDEIRQEIENETERISGNNKGVSPEPIHLKVFSPNVVNLTLVDLPGMTKVPVGDQPKDIELQIRELILRFISNPNSIILAVTAANTDMATSEALKISREVDPDGRRTLAVITKLDLMDAGTDAMDVLMGRVIPVKLGIIGVVNRSQLDINNKKSVTDSIRDEYAFLQKKYPSLANRNGTKYLARTLNRLLMHHIRDCLPELKTRINVLAAQYQSLLNSYGEPVDDKSATLLQLITKFATEYCNTIEGTAKYIETSELCGGARICYIFHETFGRTLESVDPLGGLNTIDILTAIRNATGPRPALFVPEVSFELLVKRQIKRLEEPSLRCVELVHEEMQRIIQHCSNYSTQELLRFPKLHDAIVEVVTCLLRKRLPVTNEMVHNLVAIELAYINTKHPDFADACGLMNNNIEEQRRNRLARELPSAGSRDKVPSAGGGIGDGGQEPTTGNWRGMLKTSKAEELLAEEKSKPIPIMPASPQKGHAVNLLDVPVPVARKLSAREQRDCEVIERLIKSYFLIVRKNIQDSVPKAVMHFLVNHVKDTLQSELVGQLYKSSLLDDLLTESEDMAQRRKEAADMLKALQGASQIIAEIRETHLW
# Key:
# arp3_human ACTR3, P61158 = variants of: B1; conditions: with arp3_human ACTR3, P61158
# cof1_human CFL1, P23528 = variants of: B1; conditions: with cof1_human CFL1, P23528
# cof1_human CFL1, P23528, sequence (P23528 whole entry): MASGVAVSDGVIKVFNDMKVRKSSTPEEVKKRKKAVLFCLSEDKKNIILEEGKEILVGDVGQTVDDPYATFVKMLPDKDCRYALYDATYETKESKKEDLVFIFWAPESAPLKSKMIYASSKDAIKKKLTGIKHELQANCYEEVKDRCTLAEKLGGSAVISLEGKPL
"effect of a mutation on the interaction (arp3_human ACTR3, P61158)","effect of a mutation on the interaction (cof1_human CFL1, P23528)",Variant
increasing interaction strength,increasing interaction strength,S600D
decreasing interaction strength,decreasing interaction strength,S600A

# Source: IntAct's records for PubMed 31063459
